Experimental data taken from patent US20120329707A1 (INDIANA UNIVERSITY RESEARCH AND TECHNOLOGY, published 2012).
Numbered stars: 1 amine (or outer) side, 2 acyl side, 3 side chain; on linkers, the order of the positions; unused ones are H or OH. Square brackets hold non-standard residues; d marks the D form. Side chains are listed from the residue outwards. Ends that are not written are not given here. * marks the point of attachment. γGlu = O=C(O)[C@H](CCC(=O)[*:2])N[*:1]; Desaminohistidyl = O=C(CCc1c[nH]cn1)*; Palmitoyl = CCCCCCCCCCCCCCCC(=O)*; Aib = CC(C)(N)C(=O)O

Experiments:
Test in all cases: cell-based or functional assay
GIP receptor = target: T1, GIP receptor
T1 sequence (P48546 whole entry, species assumed, looked up): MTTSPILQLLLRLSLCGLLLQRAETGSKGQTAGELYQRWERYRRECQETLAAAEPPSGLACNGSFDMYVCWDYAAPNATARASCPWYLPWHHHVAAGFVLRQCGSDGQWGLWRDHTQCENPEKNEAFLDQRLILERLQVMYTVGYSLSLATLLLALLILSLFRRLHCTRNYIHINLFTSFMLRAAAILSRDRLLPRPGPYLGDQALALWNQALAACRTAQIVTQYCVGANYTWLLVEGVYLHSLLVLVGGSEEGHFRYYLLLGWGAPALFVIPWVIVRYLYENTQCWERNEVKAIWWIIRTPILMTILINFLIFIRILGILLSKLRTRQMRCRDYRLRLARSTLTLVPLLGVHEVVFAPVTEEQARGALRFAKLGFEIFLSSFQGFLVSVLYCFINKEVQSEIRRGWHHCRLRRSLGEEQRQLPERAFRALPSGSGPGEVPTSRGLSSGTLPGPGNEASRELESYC

glucagon receptor = target: glucagon receptor
GLP-1 receptor = target: GLP-1 receptor

In the case of Ac-H[dS]QGTFTSDK([γGlu-Palmitoyl])SKYLDERAAQDFVQWLLDT-NH2 [peptide of SEQ ID NO: 21], the “EC50 (nM) at GIP receptor” value (GIP receptor) is reported as 4.5 nM, the “EC50 (nM) at glucagon receptor” value (glucagon receptor) is reported as 0.005 nM and the “EC50 (nM) at GLP-1 receptor” value (GLP-1 receptor) is reported as 0.009 nM.

H[dS]QGTFTSDK([γGlu-Palmitoyl])SKYLDERAAQDFVQWLLDGRG-NH2 [peptide of SEQ ID NO: 19] was tested, and the “EC50 (nM) at GIP receptor” value (GIP receptor) was 0.812 nM, the “EC50 (nM) at glucagon receptor” value (glucagon receptor) was 0.004 nM and the “EC50 (nM) at GLP-1 receptor” value (GLP-1 receptor) was 0.002 nM.

B1: peptide of SEQ ID NO: 23 (peptide)
peptide: H[Aib]QGTFTSDK([γGlu-γGlu-Palmitoyl])SKYLD[Aib]RAAQDFVQWLMKGRG-NH2
modifications: N-terminus assumed
SMILES: CCCCCCCCCCCCCCCC(=O)N[C@@H](CCC(=O)N[C@@H](CCC(=O)NCCCC[C@H](NC(=O)[C@H](CC(=O)O)NC(=O)[C@H](CO)NC(=O)[C@@H](NC(=O)[C@H](Cc1ccccc1)NC(=O)[C@@H](NC(=O)CNC(=O)[C@H](CCC(N)=O)NC(=O)C(C)(C)NC(=O)[C@@H](N)Cc1c[nH]cn1)[C@@H](C)O)[C@@H](C)O)C(=O)N[C@@H](CO)C(=O)N[C@@H](CCCCN)C(=O)N[C@@H](Cc1ccc(O)cc1)C(=O)N[C@@H](CC(C)C)C(=O)N[C@@H](CC(=O)O)C(=O)NC(C)(C)C(=O)N[C@@H](CCCNC(=N)N)C(=O)N[C@@H](C)C(=O)N[C@@H](C)C(=O)N[C@@H](CCC(N)=O)C(=O)N[C@@H](CC(=O)O)C(=O)N[C@@H](Cc1ccccc1)C(=O)N[C@H](C(=O)N[C@@H](CCC(N)=O)C(=O)N[C@@H](Cc1c[nH]c2ccccc12)C(=O)N[C@@H](CC(C)C)C(=O)N[C@@H](CCSC)C(=O)N[C@@H](CCCCN)C(=O)NCC(=O)N[C@@H](CCCNC(=N)N)C(=O)NCC(N)=O)C(C)C)C(=O)O)C(=O)O
With B1 the “EC50 (nM) at GIP receptor” value (GIP receptor) was 1.58 nM, the “EC50 (nM) at glucagon receptor” value (glucagon receptor) was 0.023 nM and the “EC50 (nM) at GLP-1 receptor” value (GLP-1 receptor) was 0.004 nM.

[Desaminohistidyl][dS]QGTFTSDK([γGlu-Palmitoyl])SKYLDERAAQDFVQWLLDT-NH2 [peptide of SEQ ID NO: 20] was tested, and the “EC50 (nM) at GIP receptor” value (GIP receptor) was 1.38 nM, the “EC50 (nM) at glucagon receptor” value (glucagon receptor) was 0.006 nM and the “EC50 (nM) at GLP-1 receptor” value (GLP-1 receptor) was 0.004 nM.

In the case of H[Aib]QGTFTSDK([γGlu-Palmitoyl])SKYLD[Aib]RAAQDFVQWLMKTK[dE]-OH [peptide of SEQ ID NO: 60], the “EC50 (nM) at GIP receptor” value (GIP receptor) is reported as 147 nM, the “EC50 (nM) at glucagon receptor” value (glucagon receptor) is reported as 4.6 nM and the “EC50 (nM) at GLP-1 receptor” value (GLP-1 receptor) is reported as 0.033 nM.

B2: peptide of SEQ ID NO: 22 (peptide)
peptide: H[Aib]QGTFTSDK([γGlu-γGlu-Palmitoyl])SKYLD[Aib]RAAQDFVQWLMDGRG-NH2
modifications: N-terminus assumed
SMILES: CCCCCCCCCCCCCCCC(=O)N[C@@H](CCC(=O)N[C@@H](CCC(=O)NCCCC[C@H](NC(=O)[C@H](CC(=O)O)NC(=O)[C@H](CO)NC(=O)[C@@H](NC(=O)[C@H](Cc1ccccc1)NC(=O)[C@@H](NC(=O)CNC(=O)[C@H](CCC(N)=O)NC(=O)C(C)(C)NC(=O)[C@@H](N)Cc1c[nH]cn1)[C@@H](C)O)[C@@H](C)O)C(=O)N[C@@H](CO)C(=O)N[C@@H](CCCCN)C(=O)N[C@@H](Cc1ccc(O)cc1)C(=O)N[C@@H](CC(C)C)C(=O)N[C@@H](CC(=O)O)C(=O)NC(C)(C)C(=O)N[C@@H](CCCNC(=N)N)C(=O)N[C@@H](C)C(=O)N[C@@H](C)C(=O)N[C@@H](CCC(N)=O)C(=O)N[C@@H](CC(=O)O)C(=O)N[C@@H](Cc1ccccc1)C(=O)N[C@H](C(=O)N[C@@H](CCC(N)=O)C(=O)N[C@@H](Cc1c[nH]c2ccccc12)C(=O)N[C@@H](CC(C)C)C(=O)N[C@@H](CCSC)C(=O)N[C@@H](CC(=O)O)C(=O)NCC(=O)N[C@@H](CCCNC(=N)N)C(=O)NCC(N)=O)C(C)C)C(=O)O)C(=O)O
B2 was tested, and the “EC50 (nM) at GIP receptor” value (GIP receptor) was 2.37 nM, the “EC50 (nM) at glucagon receptor” value (glucagon receptor) was 0.005 nM and the “EC50 (nM) at GLP-1 receptor” value (GLP-1 receptor) was 0.002 nM.

For HXQGTFTSDKSKYLDERAAQDFVQWLMDT (aib at 2; Lys 10 with γEγEC16; C-terminal amide) [peptide of SEQ ID NO: 61], the “EC50 (nM) at GIP receptor” value (GIP receptor) was 0.676 nM, the “EC50 (nM) at glucagon receptor” value (glucagon receptor) was 0.009 nM and the “EC50 (nM) at GLP-1 receptor” value (GLP-1 receptor) was 0.004 nM.
